According to patent US20240052042A1 (Novartis, published 2024):
Numbering of substitutions follows the chain as printed. Where two headings read alike, the source gives them in different places.

Tests used:
hNPR1-ANP complex [1] = molecular target: T1, hNPR1-ANP complex (human, UniProt P01160 124-151, limits assumed); assay: FRET ANP competition assay, IgG titrated on hNPR1 with Cy5-labeled ANP; negative values mean more ANP signal [Cont.), panel XX07]
T1 construct: hNPR1 antigen in the presence of ANP; also called hNPR1 + 100 nM ANP
T1 sequence: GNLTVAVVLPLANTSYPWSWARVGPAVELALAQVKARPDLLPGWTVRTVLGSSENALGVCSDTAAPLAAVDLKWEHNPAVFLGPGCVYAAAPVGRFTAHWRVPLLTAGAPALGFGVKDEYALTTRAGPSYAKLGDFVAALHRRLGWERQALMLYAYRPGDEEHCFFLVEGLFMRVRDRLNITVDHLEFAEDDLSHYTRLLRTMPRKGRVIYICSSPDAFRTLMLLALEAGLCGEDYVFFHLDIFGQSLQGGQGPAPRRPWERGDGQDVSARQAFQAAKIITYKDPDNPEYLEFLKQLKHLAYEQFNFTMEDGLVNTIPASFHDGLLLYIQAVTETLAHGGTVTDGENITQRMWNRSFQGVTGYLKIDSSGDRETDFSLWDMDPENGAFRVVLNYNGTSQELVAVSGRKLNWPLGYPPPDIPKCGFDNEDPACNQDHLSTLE
T1 sequence (peptide): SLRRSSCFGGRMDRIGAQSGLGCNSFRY
Method: The same 31 IgGs were tested for ANP competition using a Fluorescence Resonance Energy Transfer (FRET)-based assay in which the NPR1-specific antibodies competed with ANP for binding to NPR1. In this FRET based assay (see FIG. 3), Eu-labeled Streptavidin (for measurement of IgGs) or Eu-labeled anti-hFc antibody (for measurement of FabCys) was used as an energy donor, while Cy5-labeled ANP was used as an acceptor (for all measurements). The resulting fluorescent signal was decreased by ANP-competitive antibodies. The assay was performed as follows: antibodies were mixed with NPR1 and incubated for 5 minutes at room temperature. […] After a further 60-minute incubation, readout was performed using a TECAN Infinite M1000 Pro using an excitation wavelength of 317 nm and an emission wavelength of 665 nm. Percentage of ANP competition was calculated according to the following formulae: […]
Furthermore, the clones were tested via ELISA for binding to the following antigens: human NPR1, constitutively active human NPR1 mutant (W74R), rat NPR1, human NPR3 (counter target), each in the absence and presence of ANP, and BSA. The clones were also analyzed by flow cytometry for binding to human NPR1 expressing CHO K1 cells in absence and presence of ANP (100 nM) and to parental CHO K1 cells.

[2] = molecular target: T2, human NPR1 on CHO-K1 cells in the presence of ANP (human, UniProt P01160 124-151); assay: flow cytometry (FL2-H) on hNPR1 CHO-K1 cells with saturating ANP, IgG titrated; control parental CHO-K1 [Cont.), panel XX07]
T2 construct: also called hNPR1 CHO K1 + 100 nM ANP
T2 sequence: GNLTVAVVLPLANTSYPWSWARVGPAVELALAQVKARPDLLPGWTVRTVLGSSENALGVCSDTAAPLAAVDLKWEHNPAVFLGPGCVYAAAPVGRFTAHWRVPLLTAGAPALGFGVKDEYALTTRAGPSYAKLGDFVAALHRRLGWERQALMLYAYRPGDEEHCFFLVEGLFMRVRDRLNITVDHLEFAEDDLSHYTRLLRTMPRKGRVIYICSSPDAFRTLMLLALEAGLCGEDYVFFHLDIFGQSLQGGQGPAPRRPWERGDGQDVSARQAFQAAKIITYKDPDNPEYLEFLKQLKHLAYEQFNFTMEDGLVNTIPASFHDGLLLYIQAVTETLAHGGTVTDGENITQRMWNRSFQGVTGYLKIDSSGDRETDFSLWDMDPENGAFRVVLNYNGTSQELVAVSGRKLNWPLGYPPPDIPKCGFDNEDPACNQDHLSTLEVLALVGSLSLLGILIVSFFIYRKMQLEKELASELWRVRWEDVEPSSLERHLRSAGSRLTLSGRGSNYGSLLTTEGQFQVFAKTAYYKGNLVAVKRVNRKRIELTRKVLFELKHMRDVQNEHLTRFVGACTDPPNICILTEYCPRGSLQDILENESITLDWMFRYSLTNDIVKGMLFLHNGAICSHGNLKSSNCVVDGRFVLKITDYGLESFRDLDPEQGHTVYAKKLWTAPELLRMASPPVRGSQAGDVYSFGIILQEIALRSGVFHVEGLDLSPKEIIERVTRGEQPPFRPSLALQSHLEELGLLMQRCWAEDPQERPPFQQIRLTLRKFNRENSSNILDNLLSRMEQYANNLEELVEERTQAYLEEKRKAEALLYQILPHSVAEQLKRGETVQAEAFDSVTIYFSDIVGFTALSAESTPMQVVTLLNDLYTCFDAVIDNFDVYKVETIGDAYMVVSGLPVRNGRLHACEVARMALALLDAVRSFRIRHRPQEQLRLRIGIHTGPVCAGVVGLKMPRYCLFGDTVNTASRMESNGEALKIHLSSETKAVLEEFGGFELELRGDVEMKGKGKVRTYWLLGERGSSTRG
T2 sequence (peptide): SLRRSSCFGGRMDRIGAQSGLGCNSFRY

[3] = molecular target: T2, human NPR1 on CHO-K1 cells in the …; assay: flow cytometry (FL2-H) on hNPR1 CHO-K1 cells with saturating ANP, IgG titrated; control parental CHO-K1 [Cont.), panel XX12]
hNPR1-ANP complex [4] = molecular target: T1, hNPR1-ANP complex; assay: FRET ANP competition assay, IgG titrated on hNPR1 with Cy5-labeled ANP; negative values mean more ANP signal [Cont.), panel XX12]
Method: The same 31 IgGs were tested for ANP competition using a Fluorescence Resonance Energy Transfer (FRET)-based assay in which the NPR1-specific antibodies competed with ANP for binding to NPR1. In this FRET based assay (see FIG. 3), Eu-labeled Streptavidin (for measurement of IgGs) or Eu-labeled anti-hFc antibody (for measurement of FabCys) was used as an energy donor, while Cy5-labeled ANP was used as an acceptor (for all measurements). The resulting fluorescent signal was decreased by ANP-competitive antibodies. The assay was performed as follows: antibodies were mixed with NPR1 and incubated for 5 minutes at room temperature. After addition of the Eu-labeled donor and incubation for 30 minutes at room temperature, the Cy5-ANP solution was added. After a further 60-minute incubation, readout was performed using a TECAN Infinite M1000 Pro using an excitation wavelength of 317 nm and an emission wavelength of 665 nm. Percentage of ANP competition was calculated according to the following formulae: […]

[5] = molecular target: T3, human NPR1 on CHO-K1 cells (human, UniProt P16066 33-1061); assay: flow cytometry (FL2-H) on hNPR1 CHO-K1 cells without ANP, IgG titrated; control parental CHO-K1 [panel YY02]
T3 construct: also called hNPR1 CHO K1; human NPR1 expressing CHO-K1 cells
T3 sequence: T2 sequence

[6] = molecular target: T2, human NPR1 on CHO-K1 cells in the …; assay: flow cytometry (FL2-H) on hNPR1 CHO-K1 cells with saturating ANP, IgG titrated; control parental CHO-K1 [panel YY02]
rNPR1-ANP complex [7] = molecular target: T4, rNPR1-ANP complex (rat, UniProt P01160 124-151 (human entry), limits assumed); assay: ELISA, IgG titrated on coated antigen with ANP (250 fold molar excess), fluorescence [Cont.]
T4 construct: rNPR1 antigen in the presence of ANP; also called rNPR1 + 100 nM ANP
T4 sequence: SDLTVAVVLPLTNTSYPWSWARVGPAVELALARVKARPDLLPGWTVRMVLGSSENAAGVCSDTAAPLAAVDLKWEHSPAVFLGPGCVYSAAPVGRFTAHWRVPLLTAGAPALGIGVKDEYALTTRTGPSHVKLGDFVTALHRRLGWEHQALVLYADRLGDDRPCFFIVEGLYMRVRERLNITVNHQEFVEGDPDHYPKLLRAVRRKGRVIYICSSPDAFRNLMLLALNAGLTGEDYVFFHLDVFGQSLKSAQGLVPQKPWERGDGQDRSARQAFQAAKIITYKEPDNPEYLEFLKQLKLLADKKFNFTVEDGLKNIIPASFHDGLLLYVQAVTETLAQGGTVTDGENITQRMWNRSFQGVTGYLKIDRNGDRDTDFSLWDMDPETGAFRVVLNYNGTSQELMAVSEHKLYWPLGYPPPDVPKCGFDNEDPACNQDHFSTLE
T4 sequence (peptide): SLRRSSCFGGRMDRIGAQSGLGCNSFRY

hNPR1-ANP complex [8] = molecular target: T1, hNPR1-ANP complex; assay: as above
rNPR1-ANP complex [9] = molecular target: T4, rNPR1-ANP complex; assay: as above; remark: listed apart in the source
hNPR1-ANP complex [10] = molecular target: T1, hNPR1-ANP complex; assay: as above; remark: listed apart in the source
[11] = molecular target: T2, human NPR1 on CHO-K1 cells in the …; assay: flow cytometry (FL2-H) on hNPR1 CHO-K1 cells with saturating ANP, IgG titrated; control parental CHO-K1 [panel YY03]
[12] = molecular target: T5, human Natriuretic Peptide Receptor 1 (hNPR1) (human, UniProt P16066 33-473, limits assumed); assay: ELISA, IgG titrated on coated antigen, fluorescence [Cont.]
T5 construct: pannings used NPR1-hFc; also called NPR1-hFc
T5 sequence: T1 sequence

[13] = molecular target: T2, human NPR1 on CHO-K1 cells in the …; assay: flow cytometry (FL2-H) on hNPR1 CHO-K1 cells with saturating ANP, IgG titrated; control parental CHO-K1 [panel YY01]
rNPR1-ANP complex [14] = molecular target: T4, rNPR1-ANP complex; assay: ELISA, 1 µM IgG; parameters: unit not given here
[15] = molecular target: T5, human Natriuretic Peptide Receptor 1 …; assay: ELISA, 1 µM IgG; parameters: unit not given here
hNPR1-ANP complex [16] = molecular target: T1, hNPR1-ANP complex; assay: ELISA, 1 µM IgG; parameters: unit not given here
[17] = molecular target: T2, human NPR1 on CHO-K1 cells in the …; assay: flow cytometry, hNPR1 CHO-K1 cells, IgG
[18] = molecular target: T3, human NPR1 on CHO-K1 cells; assay: flow cytometry, hNPR1 CHO-K1 cells, IgG
[19] = molecular target: T3, human NPR1 on CHO-K1 cells; assay: cell-based or functional assay

B1: XX07 (IgG format) (antibody, V domains shown)
VH: QVQLLESGGGLVQPGGSLRLSCAASGFTFSSYWMNWVRQAPGKGLEWVSAISSDGSYTYYADSVKGRFTISRDNSKNTLYLQMNSLRAEDTAVYYCARDRYSMIYSYGAGAFDYWGQGTLVTVSS
VL: DIQMTQSPSSLSASVGDRVTITCRASQGISSYLAWYQQKPGKAPKLLIYTASTLQSGVPSRFSGSGSGTDFTLTISSLQPEDFATYYCQQIWTVPRTFGQGTKVEIK
hNPR1-ANP complex [1]
  EC50 (read off the curve): ~0.3 nM
[2]
  EC50 (read off the curve): ~2 nM

B2: XX12 (IgG format) (antibody, V domains shown)
VH: B1 VH
VL: B1 VL with T93M, V94A
[3]
  EC50 (read off the curve): ~0.8 nM
hNPR1-ANP complex [4]
  EC50 (read off the curve): ~0.4 nM

B3: YY02 (IgG format) (antibody, V domains shown)
VH: EVQLVESGGGLVKPGGSLRLSCAASGFTFSSYSMNWVRQAPGKGLEWVSSISSSSSYIYYADSVKGRFTISRDNAKNSLYLQMNSLRAEDTAVYYCARSGYRGVYGFDYWGQGTLVTVSS
VL: DIQMTQSPSSVSASVGDRVTITCRASQGISSWLAWYQQKPGKAPKLLIYAASSLQSGVPSRFSGSGSGTDFTLTISSLQPEDFATYYCQQYYHSPLTFGQGTKVEIKR
notes: IgG format; also called YY02_LALA
[5]
  EC50 (read off the curve): ~200 nM
[6]
  EC50 (read off the curve): ~1 nM
rNPR1-ANP complex [7]
  EC50 (read off the curve): ~0.3 nM
hNPR1-ANP complex [8]
  EC50 (read off the curve): ~0.8 nM

B4: YY03 (IgG format) (antibody, V domains shown)
VH: EVQLLESGGGLVQPGGSLRLSCAASGFTFSSYAISWVRQAPGKGLEWVSAISGSGGSTYYAESVKGRFTISRDNSKNTLYLQMNSLRAEDTAVYYCARESGYVYYLKFDYWGQGTLVTVSS
VL: B3 VL with V11L, G28S, W32Y, A34N, Y91H, Y92V, H93R, S94V, L96I
notes: IgG format; also called YY03_LALA
rNPR1-ANP complex [9]
  EC50 (read off the curve): ~0.2 nM
hNPR1-ANP complex [10]
  EC50 (read off the curve): ~1 nM
[11]
  EC50 (read off the curve): ~2 nM
[12]
  binding result: binds

B5: YY01 (IgG format) (antibody, V domains shown)
VH: EVQLVESGGGLVQPGGSLRLSCAASGFTFSSYWISWVRQAPGKGLEWVANIKQSGSETYYVESVKGRFTISRDNAKNSLYLQMNSLRAEDTAVYYCARSLRRRSTEHAGFDVWGQGTLVTVSS
VL: DIQMTQSPSSLSASVGDRVTITCRASQGISNYLAWYQQKPGKVPKLLIYAASTLQSGVPSRFSGSGSGTDFTLTISSLQPEDVATYYCQQADKFPYTFGQGTKVEIKR
notes: also called YY01_LALA
[13]
  EC50 (read off the curve): ~0.2 nM
rNPR1-ANP complex [14]
  ELISA binding at 1 µM IgG: 50
[15]
  ELISA binding at 1 µM IgG: 54
hNPR1-ANP complex [16]
  ELISA binding at 1 µM IgG: 76
[17]
  flow cytometry S/BG at 1 µM IgG: 21 S/BG
[18]
  flow cytometry S/BG at 1 µM IgG: 35 S/BG
[19]
  cGMP conc [nM] at 1 µM IgG, +0.075 nM ANP: 14 nM
  cGMP conc [nM] at 1 µM IgG, without ANP: 5 nM
